We go through one molecule from US6395306 (PAN PACIFIC PHARMACEUTICALS, dated 2002).

This assay addresses T1, CXCR2 (human, UniProt P25025 1-360).
T1 sequence: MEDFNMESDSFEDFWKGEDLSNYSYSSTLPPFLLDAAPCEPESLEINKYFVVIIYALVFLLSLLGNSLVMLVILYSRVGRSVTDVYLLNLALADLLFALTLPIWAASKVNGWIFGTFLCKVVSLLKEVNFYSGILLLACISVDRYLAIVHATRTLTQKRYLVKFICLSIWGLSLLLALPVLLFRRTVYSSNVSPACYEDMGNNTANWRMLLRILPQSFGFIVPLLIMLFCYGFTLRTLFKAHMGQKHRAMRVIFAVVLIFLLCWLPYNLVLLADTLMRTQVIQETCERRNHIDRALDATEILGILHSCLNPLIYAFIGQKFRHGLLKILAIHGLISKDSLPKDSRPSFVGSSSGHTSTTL

B1: PX3.101 protein purified from honeybee venom (other)
chain: GGFGGFGGFGGLGGRGKCPSNEIFSRCDGRCQRFCPNVVPKPLCIKICAPGCVCRLGYLRNKKKVCVPRSKCG
With B1, the IC50 (as a rule, the point on the concentration scale where inhibition reaches its midpoint) was determined as 500 nM.
